{"source": "patent US20240350646A1", "about": "“METHODS AND COMPOSITIONS FOR DELIVERY TO AND ACROSS THE BLOOD BRAIN BARRIER” (NUtech Ventures, priority 2021, published 2024)", "key": {"[1]": {"target": "T1, mouse claudin-1 (Mus musculus, UniProt O88551)", "T1 construct": "These cells were subjected to ethanol (50 mM) treatment to induce claudin-1 expression; endogenous in cells; host or cells: bEnd.3 mouse brain microvascular endothelial cells", "T1 sequence (O88551 1-211)": "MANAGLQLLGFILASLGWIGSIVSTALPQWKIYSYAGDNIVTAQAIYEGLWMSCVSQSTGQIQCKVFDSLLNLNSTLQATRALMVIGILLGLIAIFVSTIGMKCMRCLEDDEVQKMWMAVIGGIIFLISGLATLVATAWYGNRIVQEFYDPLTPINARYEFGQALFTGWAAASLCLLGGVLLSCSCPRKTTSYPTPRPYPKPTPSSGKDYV", "assay": "In vitro immunofluorescence of NP binding in bEnd.3 cells (control and ethanol induced)", "type": "cell-based", "conditions": "4 hrs", "procedure": "bEnd.3 cells were cultured according to the ATCC culture conditions in DMEM. These cells were subjected to ethanol (50 mM) treatment to induce claudin-1 expression and incubated with C1C2-NP for 4 hrs. For determining attachment of the C1C2-NP to human claudin-1, human claudin-1 encoded PCMV script plasmid was overexpressed in bEnd.3 cells and then incubated with C1C2-NP for 4 hrs."}, "[2]": {"assay": "K^trans DCE-MRI: brain region accumulation and retention of NPs", "type": "in vivo, C57BL/6J mice", "conditions": "for K^trans, corpus callosum (CC): 100 μL of 0.5 mM NP via tail vein", "procedure": "Both male and female young (6-8 weeks) C57BL/6J mice (Jackson Laboratory, Bar Harbor, ME) and middle aged (12 months) C57BL/6J and CX3CR1-GFP (Jackson Laboratory, Bar Harbor, ME) from a C57BL/6J background mice were used. Mice were housed in a 12 h/12 h day/night cycle with ad libitum access to standard mouse chow and water. All animal work was approved by and performed under the guidance of the University of Nebraska-Lincoln IACUC.\nIn vivo NP assessment consisted of dynamic contrast-enhanced (DCE)-MRI using a 9.4T MRI system (Varian) to compare targeting agent effect on the uptake as previously described (Miller et al., 2019, Scientific Reports, 9:16099). Briefly, mice were induced with about 2% isoflurane gas and maintained at a concentration sufficient to achieve 50 to 80 breaths per minute. Baseline T1 maps were generated using a gradient-echo sequence and the variable flip angle method with two angles, 10° and 30° (Deoni et al., 2003, Magn. Reson. Med., 49:515-26). Mice were injected with 100 μL of a 0.5 mM NP solution via tail vein catheter followed by 100 μL PBS to flush all remaining NP solution. A flip angle of 30° was used for all post-contrast scans, which occurred for 1 h following injection. TR was between 54 and 84 ms, TE between 2.73 and 4.24 ms, matrix size between 128×128 and 256×256, FOV between 20×20×10 mm^3 and 25×25×10 mm^3 depending on the experiment. NEX varied with matrix size to maintain temporal resolution, with 128×128, NEX=5 for all scans, with 256×256, NEX=4 for baseline and 1 for post-contrast scans.\nFollowing serial image acquisition, resulting in about 100 post-contrast scans per animal, R1, concentration, and K^trans mapping were performed using custom MATLAB script. R1 mapping was performed using the variable flip angle method based on the following equation (Deoni et al., 2005, Magn. Reson. Med., 53:237-41: […]\nwhere SSPGR is signal intensity, α is FA, E1 is […], and M0 is a proportionality factor related to longitudinal magnetization. E1 describes the linear relationship between the two signal intensity ratios, taking the slope, m, of that line enables calculation of T1 as:\nConcentration maps were then generated by comparison of baseline R1 maps with post-contrast R1 maps using the following equation: […]\nwhere C(t) is the concentration at time t, R1(t) is the post contrast R1-value at t, RT(t0) is baseline R1, and r1 is relaxivity of the contrast agent. K^trans, the contrast extravasation rate constant, mapping was then performed using a reference region (RR) model derived from the extended Tofts' model (Tofts et al., 1999, J. Magn. Reson. Imaging, 10:223-232):\nwhere CTOI and CRR are concentrations in the tissue of interest (TOI) and the RR, respectively, K^trans,TOI and K^trans, RR are K^trans in the TOI and RR, respectively, and ve,TOI and ve,RR are extravascular-extracellular volume fractions for the TOI and RR, respectively. Muscle tissue from within the FOV was used in all animals as the RR. MATLAB was used to execute a least squares curve fitting routine to calculate K^trans for each voxel in the brain."}, "[3]": {"conditions": "old (1-year-old) mice, listed as C1C2-NPs"}}}
{"substance": "C1C2-NP: PEG diacid coated ultrasmall Gd NP conjugated with C1C2 peptide SSVSQSTGQIQSKVDSLLNLNSTQATR (SEQ ID NO: 6); claudin-1 targeted (Ac-SSVSQSTGQIQSKVDSLLNLNSTQATR-NH2; also: conjugated to PEG diacid coated ultrasmall Gd nanoparticle)", "values": [{"measurement": "Binding to bEnd.3 cells", "setting": "[1]; claudin-1 induced by ethanol (50 mM)", "value": "much higher binding"}, {"measurement": "Binding to bEnd.3 cells", "setting": "[1]; control cells, low claudin-1 expression", "value": "no binding"}, {"measurement": "K^trans, cortex (CTX)", "setting": "[2]; old (1-year-old) mice", "value": 0.0148, "unit": "min⁻¹"}, {"measurement": "K^trans, hippocampus (HC)", "setting": "[2]; old (1-year-old) mice", "value": 0.0040, "unit": "min⁻¹"}, {"measurement": "K^trans, hypothalamus (HT)", "setting": "[2]; old (1-year-old) mice", "value": 0.0102, "unit": "min⁻¹"}, {"measurement": "K^trans, muscle", "setting": "[2]; old (1-year-old) mice", "value": 0.0057, "unit": "min⁻¹"}, {"measurement": "K^trans, corpus callosum (CC)", "setting": "[2]; old (1-year-old) mice", "value": 0.0058, "unit": "min⁻¹"}, {"measurement": "K^trans, corpus callosum (CC)", "setting": "[2]; [3]", "value": 0.0058, "unit": "min⁻¹"}, {"measurement": "K^trans, cortex (CTX)", "setting": "[2]; [3]", "value": 0.0145, "unit": "min⁻¹"}, {"measurement": "K^trans, hippocampus (HC)", "setting": "[2]; [3]", "value": 0.0040, "unit": "min⁻¹"}, {"measurement": "K^trans, hypothalamus (HT)", "setting": "[2]; [3]", "value": 0.0134, "unit": "min⁻¹"}, {"measurement": "K^trans, cortex (CTX)", "setting": "[2]; young mice", "value": 0.0022, "unit": "min⁻¹"}, {"measurement": "K^trans, hippocampus (HC)", "setting": "[2]; young mice", "value": 0.0019, "unit": "min⁻¹"}, {"measurement": "K^trans, hypothalamus (HT)", "setting": "[2]; young mice", "value": 0.0026, "unit": "min⁻¹"}, {"measurement": "K^trans, muscle", "setting": "[2]; young mice", "value": 0.0028, "unit": "min⁻¹"}, {"measurement": "K^trans, corpus callosum (CC)", "setting": "[2]; young mice", "value": 0.0019, "unit": "min⁻¹"}]}
